From paper PMC12616241 (2025)

Columns and labels:
Experiment in all cases: SPR
[1] = biological target: FcγRIIIa-V158 (His-tagged recombinant) (human)
[2] = biological target: FcγRIIIa-F158 (His-tagged recombinant) (human, UniProt P08637 17-208)
[3] = biological target: FcγRIIa-R131
[4] = biological target: FcγRIIa-H131

FcγRIIIa-F158 (His-tagged recombinant), sequence (P08637 17-208): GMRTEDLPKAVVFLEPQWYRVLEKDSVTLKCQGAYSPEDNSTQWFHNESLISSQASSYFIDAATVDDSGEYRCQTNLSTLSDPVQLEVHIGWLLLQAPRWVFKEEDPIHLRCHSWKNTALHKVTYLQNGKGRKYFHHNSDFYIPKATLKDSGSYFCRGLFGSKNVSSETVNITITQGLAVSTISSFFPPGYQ
FcγRIIIa-V158 (His-tagged recombinant) (human), sequence (chain, as listed by the source): as the sequence (P08637 17-208) above, with F160V counted along it

Kd [1]: 91.7 nM
Kd [2]: 113 nM
Kd [3]: 1440 nM
Kd [4]: 764 nM
B1: margetuximab (antibody)
chain 1: QVQLQQSGPELVKPGASLKLSCTASGFNIKDTYIHWVKQRPEQGLEWIGRIYPTNGYTRYDPKFQDKATITADTSSNTAYLQVSRLTSEDTAVYYCSRWGGDGFYAMDYWGQGASVTVSS
chain 2: DIVMTQSHKFMSTSVGDRVSITCKASQDVNTAVAWYQQKPGHSPKLLIYSASFRYTGVPDRFTGSRSGTDFTFTISSVQAEDLAVYYCQQHYTTPPTFGGGTKVEIK
